Substrate: CC(=O)N[C@@H](C)C(=O)N[C@@H](C)C(=O)N1CCC[C@H]1C(=O)N[C@H](C(=O)N1CCC[C@H]1C(=O)N[C@H](C(=O)N[C@@H](C)C(=O)N[C@@H](C)C(=O)N1CCC[C@H]1C(N)=O)C(C)C)[C@@H](C)O[C@H]1O[C@H](CO)[C@@H](O)[C@H](O)[C@@H]1O
Assay: Substrate specificity and kinetic parameters of solubilized human OMGnT enzyme (S)
Format: biochemical
Settings: other: 125 mM MOPS pH7.3, 0.2 mM UDP-GlcNAc, 7.5 mM MnCl2, 37° C., 2 hours, pH 7.3
Method: […] […] The reaction mixture was then filtered with a filter Ultrafree-MC (Millipore) having a pore size of 0.22 μm to remove solids, and analyzed by Wakopak 5C18-200 column (4.6×250 mm, Wako Pure Chemical Industries, Ltd.). The separation was carried out using concentration gradient with Solution A and Solution B at a flow rate of 1.0 ml/min. […] Peptide detection was carried out at 214 nm, and the radioactivity of each fraction was assayed using a liquid scintillation counter.
The activity of GnT-1 was assayed with a method by Yoshida et al. [Yoshida, S., Suzuki, M., Yamano, S., Takeuchi, M., Ikenaga, H., Kioka, N., Sakai, H., and Komano, T., Glycobiology, (1999), 9, 53–58] as described below. A 20 μl reaction solution was prepared by adding an enzyme source thereto so as to have a final concentration of 100 mM MES (pH 6.0), 20 mM MnCl2, 5 μM Manα1–6(Manα1–3)Manα1–6(Manα1–3)Manβ1–4GlcNAcβ1–4GlcNAc-PA(M5GN2-PA; Takara Shuzo, PA-Sugar Chain 017), 1 mM UDP-GlcNAc, 100 mM GlcNAc, 5 mM AMP, 1% Triton X-100, and 0.2% BSA. The reaction solution was incubated at 37° C. for 1 hour, and the reaction was terminated in boiling water. Thereafter, the reaction solution was analyzed by a reverse phase HPLC (Cosmosil 5C18-AR column) available from Nacalai Tesque. […]

B1: His-Xpress-sOMGnT(S) (Homo sapiens; M623V) (protein)
chain: SSAEEAECHWADTELNRRRRRFCSKVEGYGSVCSCKDPTPIEFSPDPLPDNKVLNVPVAVIAGNRPNYLYRMLRSLLSAQGVSPQMITVFIDGYYEEPMDVVALFGLRGIQHTPISIKNARVSQHYKASLTATFNLFPEAKFAVVLEEDLDIAVDFFSFLSQSIHLLEEDDSLYCISAWNDQGYEHTAEDPALLYRVETMPGLGWVLRRSLYKEELEPKWPTPEKLWDWDMWMRMPEQRRGRECIIPDVSRSYHFGIVGLNMNGYFHEAYFKKHKFNTVPGVQLRNVDSLKKEAYEVEVHRLLSEAEVLDHSKNPCEDSFLPDTEGHTYVAFIRMEKDDDFTTWTQLAKCLHIWDLDVRGNHRGLWRLFRKKNHFLVVGVPASPYSVKKPPSVTPIFLEPPPKEEGAPGAPEQT
notes: Ig kappa chain secretory signal (N); made in house; host or cells: HEK293T (transient, secreted into serum-free medium)
B1 showed a Km of 1360 µM.

Source: patent US7217548B2, “N-acetylglucosaminlytransferase and polynucleotide encoding the same” (National Institute of Advanced Industrial Science and …, priority 2000, dated 2007)
